These results are taken from patent US20250340631A1 (HARBOUR BIOMED SHANGHAI, published 2025).

One test deals with T1, human CLDN2 (human, UniProt P57739 1-230).
T1 construct: whole, on cells; also called hCLDN2
T1 sequence (looked up): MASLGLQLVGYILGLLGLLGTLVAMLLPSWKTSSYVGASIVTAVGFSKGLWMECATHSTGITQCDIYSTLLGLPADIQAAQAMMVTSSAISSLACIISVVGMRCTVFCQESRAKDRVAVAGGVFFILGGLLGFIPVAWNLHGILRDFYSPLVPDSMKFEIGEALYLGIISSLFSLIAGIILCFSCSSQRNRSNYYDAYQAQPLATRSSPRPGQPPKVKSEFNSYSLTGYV
Kind of test: FACS on HEK293 cells transiently expressing human CLDN2.

For test [1], the target named is T2, human CLDN18.2 (human).
T2 construct: the HEK293 line was made with a GenScript plasmid; also called hCLDN18.2
Kind of test: FACS on NUGC4_D8 cells.
Procedure: (§1) Antibodies were assayed for binding affinity by FACS. Test cells include HEK293/hCLDN18.2, HEK293/hCLDN18.1, NUGC4_D8 and Jurkat cells. […] The cell density was adjusted to 10⁶ cells/mL, and 50 μL of the cell suspension was added to each well of a 96-well plate. Antibodies were diluted to different concentrations with FACS buffer, and 50 μL of the antibody dilution was added to each well of the 96-well plate. After 2 h of incubation at 4° C., the plate was washed twice with FACS buffer. […] After 1 h of incubation at 4° C., the plate was washed twice with FACS buffer. The cells were resuspended in fixative solution, and then the fluorescence of the cells was monitored using an FACS instrument (ACEA NovoCyte).

For test [2], the target named is T2, human CLDN18.2. Kind of test: cell-based or functional assay.
For test [3], the target named is CLDN18.2 of SNU620 cells (methionine to leucine at amino acid 149) (human, UniProt P56856-2 1-261). Kind of test: cell-based or functional assay.
CLDN18.2 of SNU620 cells (methionine to leucine at amino acid 149), sequence (P56856 other isoform, or with tags, fused parts or gaps limits assumed): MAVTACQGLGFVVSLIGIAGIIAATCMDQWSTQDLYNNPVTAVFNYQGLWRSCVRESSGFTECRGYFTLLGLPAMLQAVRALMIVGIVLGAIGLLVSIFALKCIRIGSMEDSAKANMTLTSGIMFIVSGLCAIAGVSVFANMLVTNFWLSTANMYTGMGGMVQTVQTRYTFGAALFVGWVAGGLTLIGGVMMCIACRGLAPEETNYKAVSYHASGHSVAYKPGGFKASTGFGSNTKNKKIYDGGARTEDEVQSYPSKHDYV
Test [4] has as its target T2, human CLDN18.2. Nature of the test: FACS on HEK293/hCLDN18.2 cells.
Procedure: as §1
Test [5] concerns the target T3, human CD3 on Jurkat cells (human, UniProt P07766 23-207).
T3 construct: whole, on cells; on cells it stands in the whole CD3/TCR complex; also called CD3-expressing cells
Nature of the test: FACS on Jurkat cells (CD3).
Procedure: as §1

Test [6] addresses T3, human CD3 on Jurkat cells. Nature of the test: FACS on Jurkat cells (CD3). This is another data set of the same source.
Procedure: as §1

Read-outs that look alike come from different tables or passages of the source.

T3 sequence (P07766 23-207): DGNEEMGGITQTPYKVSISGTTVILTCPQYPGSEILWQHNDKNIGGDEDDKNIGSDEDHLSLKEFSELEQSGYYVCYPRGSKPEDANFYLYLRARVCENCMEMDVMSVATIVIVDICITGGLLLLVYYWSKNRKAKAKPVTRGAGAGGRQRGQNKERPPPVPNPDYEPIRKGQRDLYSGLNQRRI
Procedure for human CLDN2: Antibodies were assayed for binding affinity to human CLDN18.2 paralogous proteins by FACS (ACEA NovoCyte). CLDN1, CLDN2, CLDN3, CLDN4, CLDN6 and CLDN9 genes of the human CLDN18.2 paralogous family were transiently transfected into HEK293 cells. […] The cell density was adjusted to 10⁶ cells/mL, and 50 μL of the cell suspension was added to each well of a 96-well plate. An antibody was diluted to 60 nM with FACS buffer, and 50 μL of the antibody dilution was added to each well of the 96-well plate. After 2 h of incubation at 4° C., the plate was washed twice with FACS buffer. Then, an FACS buffer containing a secondary antibody was added. After 1 h of incubation at 4° C., the plate was washed twice with FACS buffer. The cells were resuspended in fixative solution, and run FACS.

B1: Positive Control (hCLDN2 row) (antibody, human IgG1, kappa, V domains shown)
VH: VKLLQSGAALVPKPGDSMKMSCKASGYTFTHDIIHWVRQSHGKSLEWIGYINPYNGGTNYNEKFKTKATMTVDKPSSTAYLELTRVSSEASAIYYCATGSFDYWGQGVMVTVSS
VL: DVVLTQTPGSLSLAIGQSASISCKSSQSLLGTSGKTFLNWILQRPGQSPERLIYQVSKLYSEVPDRFSGSGSETEFTLKISRVEAEDLGVYYCWQGIHFPHTFGAGTKLELKR
notes: The sheet prints only 'Positive Control'; also called PR005080; Human Claudin-2 Antibody (PR005080)
For B1, the binding result in the test with human CLDN2 was “binds”.

B2: PR005398 (bispecific antibody, human IgG1, lambda, L234A L235A)
chain: EVQLVESGGGLVQPGGSLRLSCAASGFTFSSYWMHWVRQVPGKGLVWVSRINFDSSRTIYADSVKGRFTISRDNAKNTLYLQMNSLRAEDTAVYYCARGEDHDILTGYPIRGQGTTVTVSSGGGGSGGGGSGGGGSEVQLVESGGGLVQPGGSLRLSCAASGFTFSSYWMHWVRQVPGKGLVWVSRINFDSSRTIYADSVKGRFTISRDNAKNTLYLQMNSLRAEDTAVYYCARGEDHDILTGYPIRGQGTTVTVSSASEPKSSDKTHTCPPCPAPEAAGGPSVFLFPPKPKDTLMISRTPEVTCVVVDVSHEDPEVKFNWYVDGVEVHNAKTKPREEQYNSTYRVVSVLTVLHQDWLNGKEYKCKVSNKALPAPIEKTISKAKGQPREPQVCTLPPSREEMTKNQVSLSCAVKGFYPSDIAVEWESNGQPENNYKTTPPVLDSDGSFFLVSKLTVDKSRWQQGNVFSCSVMHEALHNHYTQKSLSLSPGK
heavy: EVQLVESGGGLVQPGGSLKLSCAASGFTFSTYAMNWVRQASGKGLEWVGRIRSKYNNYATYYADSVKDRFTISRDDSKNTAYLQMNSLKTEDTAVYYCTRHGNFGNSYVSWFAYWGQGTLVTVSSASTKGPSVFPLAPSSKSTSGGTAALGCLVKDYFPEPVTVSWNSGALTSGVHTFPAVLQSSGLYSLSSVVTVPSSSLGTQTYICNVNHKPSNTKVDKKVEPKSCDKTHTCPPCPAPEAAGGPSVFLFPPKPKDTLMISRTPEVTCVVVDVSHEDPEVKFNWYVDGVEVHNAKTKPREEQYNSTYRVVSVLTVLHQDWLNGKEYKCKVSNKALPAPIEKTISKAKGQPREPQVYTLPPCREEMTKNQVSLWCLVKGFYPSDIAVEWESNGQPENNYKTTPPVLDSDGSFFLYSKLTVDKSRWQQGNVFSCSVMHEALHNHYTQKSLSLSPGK
light: QAVVTQEPSLTVSPGGTVTLTCRSSTGAVTTSNYANWVQQKPGQAPRGLIGGTNKRAPWTPARFSGSLLGDKAALTLLGAQPEDEAEYFCALWYSNLWVFGGGTKLTVLGQPKAAPSVTLFPPSSEELQANKATLVCLISDFYPGAVTVAWKADSSPVKAGVETTTPSKQSNNKYAASSYLSLTPEQWKSHRSYSCQVTHEGSTVEKTVAPTECS
notes: structure 1; CD3 Fab from PR003886, CLDN18.2 VH from PR007242; LALA
On to B2, for which the EC50 (usually the concentration needed to bring the measured effect to its halfway point) amounted to 19.4 nM in the test with human CLDN18.2 [1] and 20.4 nM with human CLDN18.2 [4]. Moreover, in the test with human CLDN18.2 [2], the “TDCC, Titer EC50 (pM), NUGC4_D8” value worked out at 9 pM. Besides, in test [3], the “TDCC, Titer EC50 (pM), SNU620” value is 18.3 pM. Further, the binding result in test [5] is on record as “binds”.

B3: PR007081 (bispecific antibody, human IgG1, lambda)
chain: EVQLVESGGGLVQPGGSLRLSCAASGFTFSSYWMHWVRQVPGKGLVWVSRINFDSSRTIYADSVKGRFTISRDNAKNTLYLQMNSLRAEDTAVYYCARGEDHDILTGYPIRGQGTTVTVSSGGGGSGGGGSGGGGSEVQLVESGGGLVQPGGSLRLSCAASGFTFSSYWMHWVRQVPGKGLVWVSRINFDSSRTIYADSVKGRFTISRDNAKNTLYLQMNSLRAEDTAVYYCARGEDHDILTGYPIRGQGTTVTVSSASEPKSSDKTHTCPPCPAPEAAGAPSVFLFPPKPKDTLMISRTPEVTCVVVDVSHEDPEVKFNWYVDGVEVHNAKTKPREEQYNSTYRVVSVLTVLHQDWLNGKEYKCKVSNKALPAPIEKTISKAKGQPREPQVCTLPPSREEMTKNQVSLSCAVKGFYPSDIAVEWESNGQPENNYKTTPPVLDSDGSFFLVSKLTVDKSRWQQGNVFSCSVMHEALHNHYTQKSLSLSPGK
heavy: EVQLVESGGGLVQPGGSLKLSCAASGFTFSTYAMNWVRQASGKGLEWVGRIRSKYNNYATYYADSVKDRFTISRDDSKNTAYLQMNSLKTEDTAVYYCTRHGNFGNSYVSWFAYWGQGTLVTVSSASTKGPSVFPLAPSSKSTSGGTAALGCLVKDYFPEPVTVSWNSGALTSGVHTFPAVLQSSGLYSLSSVVTVPSSSLGTQTYICNVNHKPSNTKVDKKVEPKSCDKTHTCPPCPAPEAAGAPSVFLFPPKPKDTLMISRTPEVTCVVVDVSHEDPEVKFNWYVDGVEVHNAKTKPREEQYNSTYRVVSVLTVLHQDWLNGKEYKCKVSNKALPAPIEKTISKAKGQPREPQVYTLPPCREEMTKNQVSLWCLVKGFYPSDIAVEWESNGQPENNYKTTPPVLDSDGSFFLYSKLTVDKSRWQQGNVFSCSVMHEALHNHYTQKSLSLSPGK
light: QAVVTQEPSLTVSPGGTVTLTCRSSTGAVTTSNYANWVQQKPGQAPRGLIGGTNKRAPWTPARFSGSLLGDKAALTLLGAQPEDEAEYFCALWYSNLWVFGGGTKLTVLGQPKAAPSVTLFPPSSEELQANKATLVCLISDFYPGAVTVAWKADSSPVKAGVETTTPSKQSNNKYAASSYLSLTPEQWKSHRSYSCQVTHEGSTVEKTVAPTECS
notes: structure 1; CD3 Fab from PR003886, CLDN18.2 VH from PR007242; AAA
In turn, B3 displayed a half-maximal effective concentration (EC50) in the test with human CLDN18.2 [1] of 49.3 nM. In test [6], the binding result is “binds”.

B4: PR007080 (bispecific antibody, human IgG1, lambda)
chain: EVQLVESGGGLVQPGGSLRLSCAASGFTFSSYWMHWVRQVPGKGLVWVSRIDSRGSRTIYADSVKGRFTISRDNAKNTLYLQMNSLRAEDTAVYYCARGEDHDILTGYPIRGQGTTVTVSSGGGGSGGGGSGGGGSEVQLVESGGGLVQPGGSLRLSCAASGFTFSSYWMHWVRQVPGKGLVWVSRIDSRGSRTIYADSVKGRFTISRDNAKNTLYLQMNSLRAEDTAVYYCARGEDHDILTGYPIRGQGTTVTVSSASEPKSSDKTHTCPPCPAPEAAGAPSVFLFPPKPKDTLMISRTPEVTCVVVDVSHEDPEVKFNWYVDGVEVHNAKTKPREEQYNSTYRVVSVLTVLHQDWLNGKEYKCKVSNKALPAPIEKTISKAKGQPREPQVCTLPPSREEMTKNQVSLSCAVKGFYPSDIAVEWESNGQPENNYKTTPPVLDSDGSFFLVSKLTVDKSRWQQGNVFSCSVMHEALHNHYTQKSLSLSPGK
heavy: EVQLVESGGGLVQPGGSLKLSCAASGFTFSTYAMNWVRQASGKGLEWVGRIRSKYNNYATYYADSVKDRFTISRDDSKNTAYLQMNSLKTEDTAVYYCTRHGNFGNSYVSWFAYWGQGTLVTVSSASTKGPSVFPLAPSSKSTSGGTAALGCLVKDYFPEPVTVSWNSGALTSGVHTFPAVLQSSGLYSLSSVVTVPSSSLGTQTYICNVNHKPSNTKVDKKVEPKSCDKTHTCPPCPAPEAAGAPSVFLFPPKPKDTLMISRTPEVTCVVVDVSHEDPEVKFNWYVDGVEVHNAKTKPREEQYNSTYRVVSVLTVLHQDWLNGKEYKCKVSNKALPAPIEKTISKAKGQPREPQVYTLPPCREEMTKNQVSLWCLVKGFYPSDIAVEWESNGQPENNYKTTPPVLDSDGSFFLYSKLTVDKSRWQQGNVFSCSVMHEALHNHYTQKSLSLSPGK
light: QAVVTQEPSLTVSPGGTVTLTCRSSTGAVTTSNYANWVQQKPGQAPRGLIGGTNKRAPWTPARFSGSLLGDKAALTLLGAQPEDEAEYFCALWYSNLWVFGGGTKLTVLGQPKAAPSVTLFPPSSEELQANKATLVCLISDFYPGAVTVAWKADSSPVKAGVETTTPSKQSNNKYAASSYLSLTPEQWKSHRSYSCQVTHEGSTVEKTVAPTECS
notes: structure 1; CD3 Fab from PR003886, CLDN18.2 VH from PR007244; AAA
Regarding B4, the EC50 in the test with human CLDN18.2 [1] amounted to 46.7 nM. In addition, the binding result in test [6] is “binds”.

B5: PR007079 (bispecific antibody, human IgG1, lambda)
chain: EVQLVESGGGLVQPGGSLRLSCAASGFTFSSYWMHWVRQVPGKGLVWVSRISSAGSRTIYADSVKGRFTISRDNAKNTLYLQMNSLRAEDTAVYYCARGEDHDILTGYPIRGQGTTVTVSSGGGGSGGGGSGGGGSEVQLVESGGGLVQPGGSLRLSCAASGFTFSSYWMHWVRQVPGKGLVWVSRISSAGSRTIYADSVKGRFTISRDNAKNTLYLQMNSLRAEDTAVYYCARGEDHDILTGYPIRGQGTTVTVSSASEPKSSDKTHTCPPCPAPEAAGAPSVFLFPPKPKDTLMISRTPEVTCVVVDVSHEDPEVKFNWYVDGVEVHNAKTKPREEQYNSTYRVVSVLTVLHQDWLNGKEYKCKVSNKALPAPIEKTISKAKGQPREPQVCTLPPSREEMTKNQVSLSCAVKGFYPSDIAVEWESNGQPENNYKTTPPVLDSDGSFFLVSKLTVDKSRWQQGNVFSCSVMHEALHNHYTQKSLSLSPGK
heavy: EVQLVESGGGLVQPGGSLKLSCAASGFTFSTYAMNWVRQASGKGLEWVGRIRSKYNNYATYYADSVKDRFTISRDDSKNTAYLQMNSLKTEDTAVYYCTRHGNFGNSYVSWFAYWGQGTLVTVSSASTKGPSVFPLAPSSKSTSGGTAALGCLVKDYFPEPVTVSWNSGALTSGVHTFPAVLQSSGLYSLSSVVTVPSSSLGTQTYICNVNHKPSNTKVDKKVEPKSCDKTHTCPPCPAPEAAGAPSVFLFPPKPKDTLMISRTPEVTCVVVDVSHEDPEVKFNWYVDGVEVHNAKTKPREEQYNSTYRVVSVLTVLHQDWLNGKEYKCKVSNKALPAPIEKTISKAKGQPREPQVYTLPPCREEMTKNQVSLWCLVKGFYPSDIAVEWESNGQPENNYKTTPPVLDSDGSFFLYSKLTVDKSRWQQGNVFSCSVMHEALHNHYTQKSLSLSPGK
light: QAVVTQEPSLTVSPGGTVTLTCRSSTGAVTTSNYANWVQQKPGQAPRGLIGGTNKRAPWTPARFSGSLLGDKAALTLLGAQPEDEAEYFCALWYSNLWVFGGGTKLTVLGQPKAAPSVTLFPPSSEELQANKATLVCLISDFYPGAVTVAWKADSSPVKAGVETTTPSKQSNNKYAASSYLSLTPEQWKSHRSYSCQVTHEGSTVEKTVAPTECS
notes: structure 1; CD3 Fab from PR003886, CLDN18.2 VH from PR007243; AAA
In the test with human CLDN18.2 [1], B5 displayed an EC50 of 73.2 nM. The binding result in test [6] is reported as “binds”.
